In article PMC9157036 one finds Kd data, which are given here for one substance.

The target of this assay is ferritin-based 24-meric nanoparticle with N-terminal protein A tag. The experiment in a line: SPR. The following applies: Fc fusion.

One may read the Kd as the free concentration of one partner at which half of the binding sites on the other are occupied at equilibrium, for simple one-to-one binding. Read a high Kd as a looser complex. In turn, “RBD (residues 331aa-524aa) of the SARS-CoV-2 Omicron spike protein with an Fc tag in the C-terminus (from UniProt P0DTC2 331-524)” yielded a Kd of 187 nM.
